We go through 84 variants from the RNAGym collection of RNA variant scans (doi:10.1093/molbev/msab373).

The labels stand for the following.
B1: Azoarcus group I ribozyme (parent)
chain: GUGCCUUGCGCCGGGAAACCACGCAAGGGAUGGUGUCAAAUUCGGCGAAACCUAAGCGCCCGCCCGGGCGUAUGGCAACGCCGAGCCAAGCUUCGGCGCCUGCGCCGAUGAAGGUGUAGAGACUAGACGGCACCCACCUAAGGCAAACGCUAUGGUGAAGGCAUAGUCCAGGGAGUGGCGAAAGUCACACAAACCGG

In this series the parent is B1. Put plainly: reverse-splicing fitness (ratio to wild type); higher = more active; in vitro selection; Mg2+ level not given. The method, boiled down:
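An in vitro group I ribozyme library with randomized positions was T7-transcribed and gel-purified. In triplicate, 10 pmol RNA in EPPS pH 7.5 was reacted with 50 pmoles of a 30-nt RNA substrate for 1 h at 37 °C across several added MgCl2 levels (1–48 mM), then stopped with EDTA. Products were reverse transcribed from a substrate-complementary primer, PCR-amplified and sequenced (HiSeq 4000). Fitness is a variant's read proportion after selection over that before, normalised to wild type.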
Turning to C82U A111C C150G C169A U176A, the reverse-splicing fitness stood at 0.00878.

Turning to A111C C150U C169U U176G, the reverse-splicing fitness was 0.00793.

Regarding C82G A111C A120G A145G C169A U176C, the reverse-splicing fitness was 0.0271.

Take C82A A111C A120U C150U C169U U176C: the reverse-splicing fitness came out at 0.00534.

As to C82A A120G A145U C150G C169U U176G, the reverse-splicing fitness turned out to be 0.00511.

On to A111C A120C A145G C150U C169G U176C, for which the reverse-splicing fitness amounted to 0.0158.

On to A111U A120C A145C C150G C169A U176C, for which the reverse-splicing fitness was determined as 0.00519.

In the case of C82G A111U A120G A145U C150U C169A, the reverse-splicing fitness came out at 0.0117.

In the case of C82A A111U A120U C169A U176C, the reverse-splicing fitness came out at 0.0039.

As for C82U A111U A120G C150U C169A U176G, the reverse-splicing fitness was 0.005.

As to C82A A111C A120C A145U C150A C169G U176A, the reverse-splicing fitness worked out at 0.0154.

In the case of C82G A111G C150U C169A U176A, the reverse-splicing fitness was determined as 0.0173.

In the case of A145G C150A C169U U176C, the reverse-splicing fitness is 0.0583.

For the variant C82G A111U A145G C150A C169U U176A, the reverse-splicing fitness was 0.0166.

Consider C82U A120C A145U C150G U176A, for which the reverse-splicing fitness is 0.00757.

As to C82G A111G A120G A145U C150U C169U U176A, the reverse-splicing fitness was 0.0186.

Consider C82A A120G A145G C150G U176A, for which the reverse-splicing fitness worked out at 0.00745.

With C82G A120U C150G C169A, the reverse-splicing fitness worked out at 0.00734.

As to C82G A111G A120G A145G C150U C169G U176C, the reverse-splicing fitness was found to be 0.0201.

C82G A120U A145G C150A C169G U176G: the reverse-splicing fitness is 0.00199.

Regarding C82U A145U C150A C169G U176C, the reverse-splicing fitness amounted to 0.00918.

Take C82A A111U A120C U176G: the reverse-splicing fitness came to 0.00616.

Turning to C82A A111G A120U C150G U176G, the reverse-splicing fitness is 0.0031.

For C82U A145G C169U U176G, the reverse-splicing fitness was 0.00391.

On to C82A A111C A120C C150U U176A, for which the reverse-splicing fitness stood at 0.0123.

Turning to A111C A120G A145G C150G C169U U176C, the reverse-splicing fitness worked out at 0.0161.

Turning to A111U A120U C169A, the reverse-splicing fitness is 0.00533.

In the case of C82U A111G A120U C150A C169U U176C, the reverse-splicing fitness worked out at 0.00372.

Consider C82U A111C A120C C150A C169G, for which the reverse-splicing fitness is 0.00864.

A120G C150G C169G U176G: the reverse-splicing fitness was 0.00469.

For the variant C82A A120U A145G C150A U176C, the reverse-splicing fitness was 0.0142.

With C82G A111C A120G A145C C169A U176G, the reverse-splicing fitness was determined as 0.00477.

On to C82A A120G C150G C169U, for which the reverse-splicing fitness is 0.0095.

On to A120U A145U C150U C169A U176G, for which the reverse-splicing fitness came to 0.00234.

On to A145U C150G C169G U176G, for which the reverse-splicing fitness worked out at 0.00509.

As for A111U A120U A145U C150G C169U, the reverse-splicing fitness is 0.00751.

C82U A111U C150U C169G: the reverse-splicing fitness was 0.00892.

With C82G A120C A145G C150A C169U, the reverse-splicing fitness came out at 0.0126.

With A111G A120U A145G C150G C169A U176C, the reverse-splicing fitness was 0.00599.

With C82U A111U A120C A145C C150G C169G U176A, the reverse-splicing fitness stood at 0.00839.

Turning to C82G A111C A120G A145C C169G, the reverse-splicing fitness came out at 0.0134.

For the variant C82G A145U C150G C169G, the reverse-splicing fitness is 0.00774.

For C82G A111U A120C A145C C150A C169G U176G, the reverse-splicing fitness came to 0.00687.

Regarding C82G A111C A120G A145U C150G C169A U176C, the reverse-splicing fitness is 0.0101.

Regarding C82U A111G A120C A145C C150U C169G U176A, the reverse-splicing fitness was determined as 0.0173.

Take C82A A111C A120C A145U C169A U176C: the reverse-splicing fitness was determined as 0.0162.

For the variant C82A A111G A120U A145C C150U C169A U176C, the reverse-splicing fitness was determined as 0.00215.

C82G A120C A145U C150G C169A: the reverse-splicing fitness amounted to 0.00974.

Consider C82A A111C A120G A145U C150A U176A, for which the reverse-splicing fitness came out at 0.0139.

Take A111U A120C A145G C169G U176G: the reverse-splicing fitness worked out at 0.00461.

C82U A111G A120C A145G C150U C169A: the reverse-splicing fitness amounted to 0.00939.

Regarding C82A A145G C150U C169A, the reverse-splicing fitness came to 0.0115.

Consider C82A A145U C150A C169A U176A, for which the reverse-splicing fitness was 0.0129.

Consider C82G A111U A120G A145G C150G U176G, for which the reverse-splicing fitness was found to be 0.00601.

Consider C82A A111G A120G A145C C150U C169A U176A, for which the reverse-splicing fitness was 0.0114.

Turning to A120U A145C C169G U176C, the reverse-splicing fitness stood at 0.0504.

As for A111G A120G C150G U176A, the reverse-splicing fitness is 0.011.

On to A111C C150G, for which the reverse-splicing fitness was determined as 0.185.

For the variant C82U A111U A145G C150G C169U U176C, the reverse-splicing fitness turned out to be 0.0115.

For C82G A111C A145U C150A C169U U176A, the reverse-splicing fitness was 0.0139.

Take C82G A111U A120U A145G C150G: the reverse-splicing fitness was 0.00902.

As for C82G A111U A120C A145G C150G C169U U176G, the reverse-splicing fitness is 0.00871.

On to C82G A111C A120U A145U C150G, for which the reverse-splicing fitness stood at 0.00826.

Consider C82U A111U A120U A145G C150A C169A U176A, for which the reverse-splicing fitness is 0.0063.

Take C82A A111G A120C A145G U176G: the reverse-splicing fitness worked out at 0.00889.

For the variant C82A A111G A145C C150G C169A U176G, the reverse-splicing fitness was found to be 0.00658.

For the variant C82A A111G A120G A145U C150A C169U U176C, the reverse-splicing fitness worked out at 0.0157.

On to C82G A120C A145G C169A U176A, for which the reverse-splicing fitness is 0.0209.

For C82A A120C C150U C169A U176C, the reverse-splicing fitness amounted to 0.0165.

On to C82G A120C A145G C150A U176G, for which the reverse-splicing fitness was 0.0102.

With C82G A111U A120C A145U C150A C169U, the reverse-splicing fitness was determined as 0.00991.

With C82U A111U A120G A145G C169G U176G, the reverse-splicing fitness is 0.00377.

Consider A111C A120G A145U C150A C169A U176C, for which the reverse-splicing fitness came to 0.011.

Regarding A111U A120G A145U C150U C169U U176C, the reverse-splicing fitness was 0.0395.

On to C82U A111C A120C C150A U176A, for which the reverse-splicing fitness was 0.0109.

A111U A120C C169A: the reverse-splicing fitness was 0.0124.

As for C82U A111U A120U A145G C150G U176A, the reverse-splicing fitness came to 0.00562.

In the case of C82U A111U A120G A145G C150A C169U, the reverse-splicing fitness turned out to be 0.00848.

As for C82G A111U A120G A145G U176A, the reverse-splicing fitness stood at 0.0125.

With C82A A111G C150G C169G U176C, the reverse-splicing fitness is 0.00543.

Take C82A A111G A120U A145U C169G U176A: the reverse-splicing fitness was found to be 0.00272.

Turning to C82A A111G A120G C150U C169A U176G, the reverse-splicing fitness is 0.00549.

In the case of C82U A111U A120C A145U C150A C169U U176C, the reverse-splicing fitness was determined as 0.0156.

C82U A111U A120C C150G U176A: the reverse-splicing fitness was determined as 0.00451.
